Measurements as given in publication PMC4955856 (Biochemistry, 2016).
Several values for one entry are separate records, joined by “and”; a condition that tells them apart may be missing. Equal values may be shown once. Read-outs that look alike come from different tables or passages of the source.

Columns and labels:
[1] = biological target: human UDP-glucose dehydrogenase Q458Bpa (human) (UniProt O60701); assay: SEC
[2] = biological target: human UDP-glucose dehydrogenase Q458Bpa (human) (UniProt O60701); assay: cross-linking
[3] = biological target: human UDP-glucose dehydrogenase Q458Bpa (human) (UniProt O60701); assay: SEC; remark: listed apart in the source
[4] = biological target: human UDP-glucose dehydrogenase T325D obligate dimeric mutant (human) (UniProt O60701); assay: SEC
[5] = biological target: human UDP-glucose dehydrogenase Y96Bpa (human) (UniProt O60701); assay: SEC
[6] = biological target: the molecule itself; assay: SEC

In the case of “human UDP-glucose dehydrogenase Q458Bpa (from UniProt O60701 1-494) (enzyme)”, the stoichiometry N [1] is reported as 6, the cross-linking efficiency (holoenzyme) [2] is reported as > 60% and the cross-linking efficiency (with UDP-xylose alone) [2] is reported as 40%. For the same molecule, the total crosslinking efficiency (with NAD+ and UDP-glucose) [2] was 63% and the stoichiometry N [3] was 6.

“human UDP-glucose dehydrogenase T325D obligate dimeric mutant (from UniProt O60701 1-494) (enzyme)” was tested, and the stoichiometry N [4] was 2.

“human UDP-glucose dehydrogenase Y96Bpa (from UniProt O60701 1-494) (enzyme)” was tested, and the stoichiometry N [5] was 2.

B1: human UDP-glucose dehydrogenase, wild type (enzyme, UniProt O60701 1-494, looked up)
chain: MFEIKKICCIGAGYVGGPTCSVIAHMCPEIRVTVVDVNESRINAWNSPTLPIYEPGLKEVVESCRGKNLFFSTNIDDAIKEADLVFISVNTPTKTYGMGKGRAADLKYIEACARRIVQNSNGYKIVTEKSTVPVRAAESIRRIFDANTKPNLNLQVLSNPEFLAEGTAIKDLKNPDRVLIGGDETPEGQRAVQALCAVYEHWVPREKILTTNTWSSELSKLAANAFLAQRISSINSISALCEATGADVEEVATAIGMDQRIGNKFLKASVGFGGSCFQKDVLNLVYLCEALNLPEVARYWQQVIDMNDYQRRRFASRIIDSLFNTVTDKKIAILGFAFKKDTGDTRESSSIYISKYLMDEGAHLHIYDPKVPREQIVVDLSHPGVSEDDQVSRLVTISKDPYEACDGAHAVVICTEWDMFKELDYERIHKKMLKPAFIFDGRRVLDGLHNELQTIGFQIETIGKKVSSKRIPYAPSGEIPKFSLQDPPNKKPKV
In the case of B1, the “stoichiometry N” value [6] is reported as 6 and 2.
